Experimental data reported in the supplement of paper PMC9170038.

System: MS2 coat protein
Assay: apparent KD of MS2 coat protein; designed switch direction (-1 OFF switch, 1 ON switch): 1; higher = weaker reporter binding
Method in brief: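 Designed RNA switches with common flanks were transcribed on Illumina chips by stalled E. coli RNA polymerase and titrated with SNAP-549-labelled MS2 coat protein, from 0.7 or 1.5 nM doubling to 3 µM, in Tris-HCl pH 7.5 buffer with KCl, MgCl2, BSA, DTT, tRNA and Tween-20. Steps lasted 0.8–1.5 h (lowest) to 10–20 min (highest). Titrations ran without input, with 200 uM small-molecule ligand, or with an oligonucleotide input. Normalised cluster fluorescence was curve-fitted, and apparent KD is the per-design median over clusters.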

[1] = input ligand: microRNA oligo, concentration not stated
[2] = Eterna round: R95, input ligand: FMN 200 uM
[3] = Eterna round: R95, input ligand: microRNA oligo, concentration not stated
[4] = Eterna round: R95, input ligand: none

| Sequence | apparent KD of MS2 coat protein (input ligand: FMN 200 uM) [nM] | apparent KD of MS2 coat protein [1] [nM] | apparent KD of MS2 coat protein (input ligand: none) [nM] | apparent KD of MS2 coat protein [2] [nM] | apparent KD of MS2 coat protein [3] [nM] | apparent KD of MS2 coat protein [4] [nM] |
| --- | --- | --- | --- | --- | --- | --- |
| AAACAGUCGCUGCGGCGACCACAUGAGGAUCACCCAUGUACAUAGGAUAUCGCCUAAAAUACUGGCGAGAAGGGUGAUUAAAGA [Vegeonor] (Eterna round: R96, puzzle: Same State NG 3) | 90.4 | 12.4 | 55.9 | – | – | – |
| AGAGGAGGAGCAGGAUAUUCGACGGAGGACGUGGAAGAAGGGUUCAUGCGAUGACAUGAGGAUCACCCAUGUACCGCGCGUCGA [AK SSNG1-V2-15.1] (Eterna round: R96, puzzle: Same State NG 1) | 143 | 106 | 478 | – | – | – |
| AGGCUCAGACGAGGAUAUAUGUGAUCACAUGAGGAUCACCCAUGUCUCGAGCUUCGGCUCGAGACAUAGAAGGCGUCUGAGCCA [SSNG2/3-A1] (Eterna round: R96, puzzle: Same State NG 2) | 505 | 8.91 | 21.4 | – | – | – |
| CAGCGCUGUCGAGAGGAUAUGCGGUGAUAGACAUGAGGAUCACCCAUGUUAGCGAUAGCAUUACGGUAGAAGGCUCUACAGCUGC [Soteed - 12] (puzzle: Same State 2) | – | – | – | 29 | 73.3 | 103 |
| GUGGUCAGACAUGAGGAUCACCCAUGUGGAAUAAAUAAGGUUUAGGAUAUGGAAUAUAGGAUAUACCAGAAGGAAAGGUUGGUG (Eterna round: R96, puzzle: Same State NG 3) | 176 | 75.4 | 133 | – | – | – |
| GAGCCAGUCCGAGGAUAUUCAUAUUACAUGAGGAUCACCCAUGUAGGCUCAGAAAAGGAGCCUUGGGAGAAGGCGGACUGGCUC [Xeonanisa<<3] (Eterna round: R96, puzzle: Same State NG 2) | 13.4 | 153 | 217 | – | – | – |
| AUUCGUUAGAUAGGAUAUCACCAUACAUGAGGAUCACCCAUGUUUACCACGCUGGUUUUUCAUACUGAGAAGGAUCUUGAUGAC [JR_SSNG2_Sub006] (Eterna round: R96, puzzle: Same State NG 2) | 20.7 | 16.7 | 30 | – | – | – |
| GCAGAACAUGAGGAUCACCCAUGUCUCAAAUAUUGAGGAUAUGGACACGGUAUAUCCGAACCAGAAGGCAAACUGC [SS1 Teenbexe 19] (puzzle: Same State 1) | – | – | – | 55.8 | 74.5 | 64 |
| GCAGAACAUGAGGAUCACCCAUGUCUCUAAUAUUGAGGAUAUGGGCACGGUAUAUCCGAACCAGAAGGCGAACUGC [SS1 Teenbexe 16] (puzzle: Same State 1) | – | – | – | 420 | 322 | 431 |
| GUAAGGCAAGCUUUUUUCUCGUAGUGUAAACAUGAGGAUCACCCAUGUGCUCGCCCUGGAUCUUUGAAUCGCAGAAA [Ritiorreon] (puzzle: Sensor for hsa-mir-208a) | – | – | – | 44.9 | 23.1 | 49.5 |
| AGAGGAGGAGCAGGAUAUUCGAAGGAGGACGUGGAAGAAGGGUUCAUGCGAUGACAUGAGGAUCACCCAUGUACCGCGCGUCGA [AK SSNG1-V2-15] (Eterna round: R96, puzzle: Same State NG 1) | 381 | 126 | 484 | – | – | – |
| GUGGUCAGACAUGAGGAUCACCCAUGUGGAAUAAAUAAGGAUUAGGAUAUGGAAUAUAGGAUAUACCAGAAGGAAUGGUUGGUG (Eterna round: R96, puzzle: Same State NG 3) | – | 75.8 | – | – | – | – |
| UUGGUGUAGAUACAGGAUAUGUUGCUUGUUACAUGAGGAUCACCCAUGUAUCUAUGAGAUUAAAUGCAGAAGGGUGCACAUCACU [salish99_ss2_r3_091] (puzzle: Same State 2) | – | – | – | 52.9 | 124 | 169 |
